Where two headings read alike, the source gives them in different places.

What all share (assay): EMSA
Background: Mobility shift assays separate free from complexed probe on a gel.

For data set [1], the target named is T1, RZ-1C (Arabidopsis thaliana, UniProt Q8RWN5 1-310).
T1 sequence: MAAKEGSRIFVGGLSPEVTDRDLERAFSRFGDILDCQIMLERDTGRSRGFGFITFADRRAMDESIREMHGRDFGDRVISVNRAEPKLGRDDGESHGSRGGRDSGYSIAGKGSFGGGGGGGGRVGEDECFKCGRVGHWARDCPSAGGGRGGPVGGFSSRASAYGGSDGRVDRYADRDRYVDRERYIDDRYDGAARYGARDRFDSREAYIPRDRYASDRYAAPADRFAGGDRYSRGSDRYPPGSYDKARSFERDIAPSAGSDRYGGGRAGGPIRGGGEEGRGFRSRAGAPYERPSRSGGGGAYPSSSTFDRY

In data set [2] the target is T2, HIN1 1-267 (N-terminal, MYB/SANT domains) (Arabidopsis thaliana, UniProt F4J686 1-267).
T2 sequence: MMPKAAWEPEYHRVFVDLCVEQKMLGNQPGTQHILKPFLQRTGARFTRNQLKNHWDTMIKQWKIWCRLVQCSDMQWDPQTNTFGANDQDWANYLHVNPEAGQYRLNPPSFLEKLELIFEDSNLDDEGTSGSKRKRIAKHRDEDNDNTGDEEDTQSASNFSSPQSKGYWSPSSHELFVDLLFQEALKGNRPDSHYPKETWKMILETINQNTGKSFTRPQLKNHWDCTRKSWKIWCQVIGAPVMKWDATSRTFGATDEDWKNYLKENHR

The target of data set [3] is T1, RZ-1C. This is another data set of the same source.
The target of data set [4] is T2, HIN1 1-267 (N-terminal, MYB/SANT …). The source holds these as a separate data set.

Take UUUCGACUUCUUCUUGACAUC (ssRNA) [U probe (GAA repeat to CUU)]: the binding result (with RZ-1C [1]; in data set [2]) was “no binding” in each case.

Consider UUUCGAGAAGAAGAAGACAUC (ssRNA) [M probe (GAA repeat, AT1G50740 intron 1 flank)], for which the binding result (in the data set with RZ-1C [1]; in data set [2]) was “binds” each time.

As to UUUCGACUUGAAGAUCUCAUC (ssRNA) [M2 probe (motif reduced to GAAGA)], the binding result (with RZ-1C [3]; in data set [4]) was “no binding” in each case.

(Values after paper PMC6825267.)
